{"source": "patent US20080241166A1", "binders": {"B1": {"name": "VHCκ chain expressed alone (TAR2-5-Cκ) (protein, not shown: small tags and cut ends)", "chain": "EVQLLESGGGLVQPGGSLRLSCAASGFTFDLYNMFWVRQAPGKGLEWVSFISQTGRLTWYADSVKGRFTISRDNSKNTLYLQMNSLRAEDTAVYYCAKTLEDFDYWGQGTLVTVSS"}}, "molecular_target": "hen egg lysozyme (hen) (UniProt P00698)", "sequence (P00698 19-147)": "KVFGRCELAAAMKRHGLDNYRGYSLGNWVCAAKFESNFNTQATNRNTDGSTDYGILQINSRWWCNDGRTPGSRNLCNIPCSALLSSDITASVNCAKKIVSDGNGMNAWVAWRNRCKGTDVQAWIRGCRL", "assay": "ELISA on coated HEL (3 mg/ml); detection via the myc tag with 9e10 and anti mouse IgG-HRP", "data": [{"binder": "B1", "values": [{"measurement": "ELISA signal (background)", "value": 0.069}]}]}
